From patent publication US20110263827A1 (AbbVie / Abbott, published 2011)

Tests used:
VEGF = biological target: T1, VEGF (UniProt P15692-4 27-191, limits assumed, biotinylated); test: direct bind ELISA, C-term VD;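 note: ELISA with antibody or DVD-Ig preparations applied to target antigen-coated plates for 1 h at room temperature, TMB colour development, absorbance read at 450 nm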
T1 construct: ELISA antigen

EGFR [1] = biological target: T2, EGFR (UniProt P00533 25-645, limits assumed, biotinylated); test: direct bind ELISA, N-term VD;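 note: antibody or DVD-Ig preparations bound to immobilized target antigen on ELISA plates, 1 h at room temperature, TMB detection read as absorbance at 450 nm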
T2 construct: ELISA antigen; construct not described

EGFR [2] = biological target: T2, EGFR; test: direct bind ELISA, C-term VD;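 note: ELISA with antibody or DVD-Ig preparations applied to target antigen-coated plates for 1 h at room temperature, TMB colour development, absorbance read at 450 nm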
ErbB3 = biological target: T3, ErbB3 (UniProt P21860 20-643, limits assumed, biotinylated); test: direct bind ELISA, N-term VD;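 note: antibody or DVD-Ig preparations bound to immobilized target antigen on ELISA plates, 1 h at room temperature, TMB detection read as absorbance at 450 nm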
T3 construct: ELISA antigen

B1: DVD779 (bispecific antibody)
VH: QVQLQESGPGLVKPSQTLSLTCTVSGYSISSDFAWNWIRQPPGKGLEWMGYISYSGNTRYQPSLKSRITISRDTSKNQFFLKLNSVTAADTATYYCVTAGRGFPYWGQGTLVTVSSASTKGPSVFPLAPEVQLVESGGGLVQPGGSLRLSCAASGYTFTNYGMNWVRQAPGKGLEWVGWINTYTGEPTYAADFKRRFTFSLDTSKSTAYLQMNSLRAEDTAVYYCAKYPHYYGSSHWYFDVWGQGTLVTVSS
VL: DIQMTQSPSSMSVSVGDRVTITCHSSQDINSNIGWLQQKPGKSFKGLIYHGTNLDDGVPSRFSGSGSGTDYTLTISSLQPEDFATYYCVQYAQFPWTFGGGTKLEIKRTVAAPSVFIFPPDIQMTQSPSSLSASVGDRVTITCSASQDISNYLNWYQQKPGKAPKVLIYFTSSLHSGVPSRFSGSGSGTDFTLTISSLQPEDFATYYCQQYSTVPWTFGQGTKVEIKR
notes: DVD-Ig; HC L, LC L; variable parts only
VEGF
  EC50: 0.00024 µM
EGFR [1]
  EC50: 0.0106 µM

B2: DVD789 (bispecific antibody)
VH: QVQLQESGPGLVKPSQTLSLTCTVSGYSISSDFAWNWIRQPPGKGLEWMGYISYSGNTRYQPSLKSRITISRDTSKNQFFLKLNSVTAADTATYYCVTAGRGFPYWGQGTLVTVSSASTKGPSVFPLAPEVQLVESGGGLVQPGGSLRLSCAASGFTISDYWIHWVRQAPGKGLEWVAGITPAGGYTYYADSVKGRFTISADTSKNTAYLQMNSLRAEDTAVYYCARFVFFLPYAMDYWGQGTLVTVSS
VL: DIQMTQSPSSMSVSVGDRVTITCHSSQDINSNIGWLQQKPGKSFKGLIYHGTNLDDGVPSRFSGSGSGTDYTLTISSLQPEDFATYYCVQYAQFPWTFGGGTKLEIKRTVAAPSVFIFPPDIQMTQSPSSLSASVGDRVTITCRASQDVSTAVAWYQQKPGKAPKLLIYSASFLYSGVPSRFSGSGSGTDFTLTISSLQPEDFATYYCQQSYTTPPTFGQGTKVEIKR
notes: as for B1
VEGF
  EC50: 0.046 µM
EGFR [1]
  EC50: 0.0146 µM

B3: DVD791 (bispecific antibody)
VH: QVQLQESGPGLVKPSQTLSLTCTVSGYSISSDFAWNWIRQPPGKGLEWMGYISYSGNTRYQPSLKSRITISRDTSKNQFFLKLNSVTAADTATYYCVTAGRGFPYWGQGTLVTVSSASTKGPSVFPLAPEVQLVESGGGLVQPGGSLRLSCAASGFTINASWIHWVRQAPGKGLEWVGAIYPYSGYTNYADSVKGRFTISADTSKNTAYLQMNSLRAEDTAVYYCARWGHSTSPWAMDYWGQGTLVTVSS
VL: DIQMTQSPSSMSVSVGDRVTITCHSSQDINSNIGWLQQKPGKSFKGLIYHGTNLDDGVPSRFSGSGSGTDYTLTISSLQPEDFATYYCVQYAQFPWTFGGGTKLEIKRTVAAPSVFIFPPDIQMTQSPSSLSASVGDRVTITCRASQVIRRSLAWYQQKPGKAPKLLIYAASNLASGVPSRFSGSGSGTDFTLTISSLQPEDFATYYCQQSNTSPLTFGQGTKVEIKR
notes: as for B1
VEGF
  EC50: 0.0116 µM
EGFR [1]
  EC50: 0.00824 µM

B4: DVD809 (bispecific antibody)
VH: QVQLQESGPGLVKPSQTLSLTCTVSGYSISSDFAWNWIRQPPGKGLEWMGYISYSGNTRYQPSLKSRITISRDTSKNQFFLKLNSVTAADTATYYCVTAGRGFPYWGQGTLVTVSSASTKGPSVFPLAPEVQLVESGGGLVQPGGSLRLSCAASGYTFTNYGMNWVRQAPGKGLEWVGWINTYTGEPTYAADFKRRFTFSLDTSKSTAYLQMNSLRAEDTAVYYCAKYPHYYGSSHWYFDVWGQGTLVTVSS
VL: DIQMTQSPSSMSVSVGDRVTITCHSSQDINSNIGWLQQKPGKSFKGLIYHGTNLDDGVPSRFSGSGSGTDYTLTISSLQPEDFATYYCVQYAQFPWTFGGGTKLEIKRTVAAPDIQMTQSPSSLSASVGDRVTITCSASQDISNYLNWYQQKPGKAPKVLIYFTSSLHSGVPSRFSGSGSGTDFTLTISSLQPEDFATYYCQQYSTVPWTFGQGTKVEIKR
notes: DVD-Ig; HC L, LC S; variable parts only
VEGF
  EC50: 0.00023 µM
EGFR [1]
  EC50: 0.00734 µM

B5: DVD819 (bispecific antibody)
VH: QVQLQESGPGLVKPSQTLSLTCTVSGYSISSDFAWNWIRQPPGKGLEWMGYISYSGNTRYQPSLKSRITISRDTSKNQFFLKLNSVTAADTATYYCVTAGRGFPYWGQGTLVTVSSASTKGPSVFPLAPEVQLVESGGGLVQPGGSLRLSCAASGFTISDYWIHWVRQAPGKGLEWVAGITPAGGYTYYADSVKGRFTISADTSKNTAYLQMNSLRAEDTAVYYCARFVFFLPYAMDYWGQGTLVTVSS
VL: DIQMTQSPSSMSVSVGDRVTITCHSSQDINSNIGWLQQKPGKSFKGLIYHGTNLDDGVPSRFSGSGSGTDYTLTISSLQPEDFATYYCVQYAQFPWTFGGGTKLEIKRTVAAPDIQMTQSPSSLSASVGDRVTITCRASQDVSTAVAWYQQKPGKAPKLLIYSASFLYSGVPSRFSGSGSGTDFTLTISSLQPEDFATYYCQQSYTTPPTFGQGTKVEIKR
notes: as for B4
VEGF
  EC50: 0.0364 µM
EGFR [1]
  EC50: 0.0122 µM

B6: DVD821 (bispecific antibody)
VH: QVQLQESGPGLVKPSQTLSLTCTVSGYSISSDFAWNWIRQPPGKGLEWMGYISYSGNTRYQPSLKSRITISRDTSKNQFFLKLNSVTAADTATYYCVTAGRGFPYWGQGTLVTVSSASTKGPSVFPLAPEVQLVESGGGLVQPGGSLRLSCAASGFTINASWIHWVRQAPGKGLEWVGAIYPYSGYTNYADSVKGRFTISADTSKNTAYLQMNSLRAEDTAVYYCARWGHSTSPWAMDYWGQGTLVTVSS
VL: DIQMTQSPSSMSVSVGDRVTITCHSSQDINSNIGWLQQKPGKSFKGLIYHGTNLDDGVPSRFSGSGSGTDYTLTISSLQPEDFATYYCVQYAQFPWTFGGGTKLEIKRTVAAPDIQMTQSPSSLSASVGDRVTITCRASQVIRRSLAWYQQKPGKAPKLLIYAASNLASGVPSRFSGSGSGTDFTLTISSLQPEDFATYYCQQSNTSPLTFGQGTKVEIKR
notes: as for B4
VEGF
  EC50: 0.0111 µM
EGFR [1]
  EC50: 0.00696 µM

B7: DVD848 (bispecific antibody)
VH: EVQLLESGGGLVQPGGSLRLSCAASGFTFSHYVMAWVRQAPGKGLEWVSSISSSGGWTLYADSVKGRFTISRDNSKNTLYLQMNSLRAEDTAVYYCTRGLKMATIFDYWGQGTLVTVSSASTKGPQVQLQESGPGLVKPSQTLSLTCTVSGYSISSDFAWNWIRQPPGKGLEWMGYISYSGNTRYQPSLKSRITISRDTSKNQFFLKLNSVTAADTATYYCVTAGRGFPYWGQGTLVTVSS
VL: QSALTQPASVSGSPGQSITISCTGTSSDVGSYNVVSWYQQHPGKAPKLIIYEVSQRPSGVSNRFSGSKSGNTASLTISGLQTEDEADYYCCSYAGSSIFVIFGGGTKVTVLGQPKAAPSVTLFPPDIQMTQSPSSMSVSVGDRVTITCHSSQDINSNIGWLQQKPGKSFKGLIYHGTNLDDGVPSRFSGSGSGTDYTLTISSLQPEDFATYYCVQYAQFPWTFGGGTKLEIKR
notes: DVD-Ig; HC S, LC L; variable parts only
EGFR [2]
  EC50: 0.0167 µM
ErbB3
  EC50: 0.00323 µM

B8: DVD756 (bispecific antibody)
VH: EVQLLESGGGLVQPGGSLRLSCAASGFTFSHYVMAWVRQAPGKGLEWVSSISSSGGWTLYADSVKGRFTISRDNSKNTLYLQMNSLRAEDTAVYYCTRGLKMATIFDYWGQGTLVTVSSASTKGPQVQLQESGPGLVKPSQTLSLTCTVSGYSISSDFAWNWIRQPPGKGLEWMGYISYSGNTRYQPSLKSRITISRDTSKNQFFLKLNSVTAADTATYYCVTAGRGFPYWGQGTLVTVSS
VL: QSALTQPASVSGSPGQSITISCTGTSSDVGSYNVVSWYQQHPGKAPKLIIYEVSQRPSGVSNRFSGSKSGNTASLTISGLQTEDEADYYCCSYAGSSIFVIFGGGTKVTVLGQPKAAPDIQMTQSPSSMSVSVGDRVTITCHSSQDINSNIGWLQQKPGKSFKGLIYHGTNLDDGVPSRFSGSGSGTDYTLTISSLQPEDFATYYCVQYAQFPWTFGGGTKLEIKR
notes: DVD-Ig; HC S, LC S; variable parts only
EGFR [2]
  EC50: 0.0489 µM
ErbB3
  EC50: 0.00394 µM
